Source: article PMC9482650, “Quantitative fragmentomics allow affinity mapping of interactomes” (Nature Communications, 2022)

T1: DLG3_3, Q92796
T1 sequence (Q92796 374-475, limits assumed, looked up): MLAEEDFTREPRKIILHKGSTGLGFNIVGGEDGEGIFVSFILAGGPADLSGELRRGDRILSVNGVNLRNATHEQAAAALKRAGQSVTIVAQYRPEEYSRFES

T2: RAPGEF6, Q8TEU7
T2 sequence (Q8TEU7 525-625, limits assumed, looked up): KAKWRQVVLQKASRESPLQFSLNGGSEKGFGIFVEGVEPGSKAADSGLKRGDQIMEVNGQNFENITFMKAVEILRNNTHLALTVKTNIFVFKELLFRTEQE

T3: DFNB31_2, Q9P202
T3 sequence (Q9P202 274-371, limits assumed, looked up): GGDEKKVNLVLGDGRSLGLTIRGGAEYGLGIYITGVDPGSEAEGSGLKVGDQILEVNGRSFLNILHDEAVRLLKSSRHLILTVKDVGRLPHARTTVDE

T4: NHERF3_4, Q5T2W1
T4 sequence (Q5T2W1 373-468, limits assumed, looked up): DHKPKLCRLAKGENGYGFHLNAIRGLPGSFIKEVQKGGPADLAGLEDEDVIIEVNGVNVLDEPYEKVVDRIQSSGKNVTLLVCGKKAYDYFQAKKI

T5: LRRC7, Q96NW7
T5 sequence (Q96NW7 1440-1537, limits assumed, looked up): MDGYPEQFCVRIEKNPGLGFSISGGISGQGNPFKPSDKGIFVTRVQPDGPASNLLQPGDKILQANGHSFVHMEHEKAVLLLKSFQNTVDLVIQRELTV

T6: LIN7B, Q9HAP6
T6 sequence (Q9HAP6 88-185, limits assumed, looked up): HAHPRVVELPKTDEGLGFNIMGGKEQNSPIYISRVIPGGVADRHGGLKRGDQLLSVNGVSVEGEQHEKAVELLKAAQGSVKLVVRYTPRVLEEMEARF

T7: GRIP1_5, Q9Y3R0
T7 sequence (Q9Y3R0 568-668, limits assumed, looked up): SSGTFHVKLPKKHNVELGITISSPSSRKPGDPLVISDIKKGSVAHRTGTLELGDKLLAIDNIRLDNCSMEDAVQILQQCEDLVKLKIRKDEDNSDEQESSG

T8: MPP2, Q14168
T8 sequence (Q14168 180-250, limits assumed, looked up): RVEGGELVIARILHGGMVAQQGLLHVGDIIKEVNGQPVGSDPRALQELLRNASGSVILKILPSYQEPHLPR

T9: PARD3B_1, Q8TEW8
T9 sequence (Q8TEW8 196-299, limits assumed, looked up): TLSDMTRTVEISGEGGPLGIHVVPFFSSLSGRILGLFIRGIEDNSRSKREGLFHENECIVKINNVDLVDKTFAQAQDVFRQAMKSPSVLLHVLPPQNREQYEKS

T10: DFNB31_3, Q9P202
T10 sequence (Q9P202 811-907, limits assumed, looked up): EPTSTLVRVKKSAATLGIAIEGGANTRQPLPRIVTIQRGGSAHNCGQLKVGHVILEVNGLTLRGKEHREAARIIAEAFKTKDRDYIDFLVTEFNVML

T11: GRIP1_4, Q9Y3R0
T11 sequence (Q9Y3R0 467-571, limits assumed, looked up): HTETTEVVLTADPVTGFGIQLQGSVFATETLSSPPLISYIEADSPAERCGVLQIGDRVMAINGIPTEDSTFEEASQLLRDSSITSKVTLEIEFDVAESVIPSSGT

T12: MPDZ_12, O75970
T12 sequence (O75970 1857-1958, limits assumed, looked up): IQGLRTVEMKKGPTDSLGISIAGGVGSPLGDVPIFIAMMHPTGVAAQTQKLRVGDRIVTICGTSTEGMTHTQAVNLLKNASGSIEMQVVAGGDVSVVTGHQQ

T13: PDZD2_2, O15018
T13 sequence (O15018 329-429, limits assumed, looked up): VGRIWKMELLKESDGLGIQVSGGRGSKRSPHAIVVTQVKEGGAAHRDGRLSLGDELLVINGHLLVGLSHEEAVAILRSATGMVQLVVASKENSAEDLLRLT


Target: SCRIB_1, Q14160
Assay: holdup assay
Design: key: below the threshold = too weak to quantify, mostly under pKd 3.1 to 4
Conditions: plain residues with an end cap or a label only (N-terminal biotin on a linker: ado-ado)

Sequence of SCRIB_1, Q14160 (Q14160 718-814): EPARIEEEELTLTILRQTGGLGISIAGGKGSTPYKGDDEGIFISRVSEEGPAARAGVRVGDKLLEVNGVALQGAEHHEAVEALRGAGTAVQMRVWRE

Binder	pKd
RRLQGTSSMV [GOLT1A, Q6ZVE7]	below the threshold
TGPWKNETTV [ADGRA1, Q86SQ6]	4.34
ALPLPQSSTC [IGF1R, P08069]	3.8

Target: GRIP2_5, Q9C0E4
Assay: holdup assay
Design: key: below the threshold = too weak to quantify, mostly under pKd 3.1 to 4
Conditions: plain residues with an end cap or a label only (N-terminal biotin on a linker: ado-ado)

Sequence of GRIP2_5, Q9C0E4 (Q9C0E4 544-642): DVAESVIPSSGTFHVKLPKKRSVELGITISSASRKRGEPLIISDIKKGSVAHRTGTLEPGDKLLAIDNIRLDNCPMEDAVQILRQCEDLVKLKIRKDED

Binder	pKd
RRLQGTSSMV [GOLT1A, Q6ZVE7]	below the threshold
TGPWKNETTV [ADGRA1, Q86SQ6]	below the threshold
ALPLPQSSTC [IGF1R, P08069]	below the threshold

Target: T1, DLG3_3, Q92796
Assay: holdup assay
Design: key: below the threshold = too weak to quantify, mostly under pKd 3.1 to 4
Conditions: plain residues with an end cap or a label only (N-terminal biotin on a linker: ado-ado)

Binder	pKd
RRLQGTSSMV [GOLT1A, Q6ZVE7]	below the threshold
TGPWKNETTV [ADGRA1, Q86SQ6]	4.48
ALPLPQSSTC [IGF1R, P08069]	below the threshold

Target: NHERF2_2, Q15599
Assay: holdup assay
Design: key: below the threshold = too weak to quantify, mostly under pKd 3.1 to 4
Conditions: plain residues with an end cap or a label only (N-terminal biotin on a linker: ado-ado)

Sequence of NHERF2_2, Q15599 (Q15599 142-238): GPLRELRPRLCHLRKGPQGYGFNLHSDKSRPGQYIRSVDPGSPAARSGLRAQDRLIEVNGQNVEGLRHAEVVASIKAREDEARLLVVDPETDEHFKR

Binder	pKd
RRLQGTSSMV [GOLT1A, Q6ZVE7]	below the threshold
TGPWKNETTV [ADGRA1, Q86SQ6]	below the threshold
ALPLPQSSTC [IGF1R, P08069]	below the threshold

Target: Inadl_2, Q8NI35
Assay: holdup assay
Design: key: below the threshold = too weak to quantify, mostly under pKd 3.1 to 4
Conditions: plain residues with an end cap or a label only (N-terminal biotin on a linker: ado-ado)

Sequence of Inadl_2, Q8NI35 (Q8NI35 238-335): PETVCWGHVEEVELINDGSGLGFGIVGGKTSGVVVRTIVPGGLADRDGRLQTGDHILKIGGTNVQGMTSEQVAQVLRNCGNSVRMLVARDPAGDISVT

Binder	pKd
RRLQGTSSMV [GOLT1A, Q6ZVE7]	below the threshold
TGPWKNETTV [ADGRA1, Q86SQ6]	below the threshold
ALPLPQSSTC [IGF1R, P08069]	below the threshold

Target: TJP2_1, Q9UDY2
Assay: holdup assay
Design: key: below the threshold = too weak to quantify, mostly under pKd 3.1 to 4
Conditions: plain residues with an end cap or a label only (N-terminal biotin on a linker: ado-ado)

Sequence of TJP2_1, Q9UDY2 (Q9UDY2 24-128): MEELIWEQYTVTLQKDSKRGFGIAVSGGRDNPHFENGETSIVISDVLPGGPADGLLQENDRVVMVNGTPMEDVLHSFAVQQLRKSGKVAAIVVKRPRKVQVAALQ

Binder	pKd
RRLQGTSSMV [GOLT1A, Q6ZVE7]	3.59
TGPWKNETTV [ADGRA1, Q86SQ6]	below the threshold
ALPLPQSSTC [IGF1R, P08069]	below the threshold

Target: T2, RAPGEF6, Q8TEU7
Assay: holdup assay
Design: key: below the threshold = too weak to quantify, mostly under pKd 3.1 to 4
Conditions: plain residues with an end cap or a label only (N-terminal biotin on a linker: ado-ado)

Binder	pKd
RRLQGTSSMV [GOLT1A, Q6ZVE7]	below the threshold
TGPWKNETTV [ADGRA1, Q86SQ6]	below the threshold
ALPLPQSSTC [IGF1R, P08069]	below the threshold

Target: T3, DFNB31_2, Q9P202
Assay: holdup assay
Design: key: below the threshold = too weak to quantify, mostly under pKd 3.1 to 4
Conditions: plain residues with an end cap or a label only (N-terminal biotin on a linker: ado-ado)

Binder	pKd
RRLQGTSSMV [GOLT1A, Q6ZVE7]	below the threshold
TGPWKNETTV [ADGRA1, Q86SQ6]	below the threshold
ALPLPQSSTC [IGF1R, P08069]	below the threshold

Target: T4, NHERF3_4, Q5T2W1
Assay: holdup assay
Design: key: below the threshold = too weak to quantify, mostly under pKd 3.1 to 4
Conditions: plain residues with an end cap or a label only (N-terminal biotin on a linker: ado-ado)

Binder	pKd
RRLQGTSSMV [GOLT1A, Q6ZVE7]	below the threshold
TGPWKNETTV [ADGRA1, Q86SQ6]	below the threshold
ALPLPQSSTC [IGF1R, P08069]	below the threshold

Target: T5, LRRC7, Q96NW7
Assay: holdup assay
Design: key: below the threshold = too weak to quantify, mostly under pKd 3.1 to 4
Conditions: plain residues with an end cap or a label only (N-terminal biotin on a linker: ado-ado)

Binder	pKd
RRLQGTSSMV [GOLT1A, Q6ZVE7]	below the threshold
TGPWKNETTV [ADGRA1, Q86SQ6]	below the threshold
ALPLPQSSTC [IGF1R, P08069]	below the threshold

Target: MAST2, Q6P0Q8
Assay: holdup assay
Design: key: below the threshold = too weak to quantify, mostly under pKd 3.1 to 4
Conditions: plain residues with an end cap or a label only (N-terminal biotin on a linker: ado-ado)

Sequence of MAST2, Q6P0Q8 (Q6P0Q8 1099-1202): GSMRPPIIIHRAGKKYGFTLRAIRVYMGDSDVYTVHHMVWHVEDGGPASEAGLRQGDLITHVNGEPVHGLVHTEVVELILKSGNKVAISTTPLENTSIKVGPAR

Binder	pKd
RRLQGTSSMV [GOLT1A, Q6ZVE7]	4.72
TGPWKNETTV [ADGRA1, Q86SQ6]	5.31
ALPLPQSSTC [IGF1R, P08069]	4.31

Target: T6, LIN7B, Q9HAP6
Assay: holdup assay
Design: key: below the threshold = too weak to quantify, mostly under pKd 3.1 to 4
Conditions: plain residues with an end cap or a label only (N-terminal biotin on a linker: ado-ado)

Binder	pKd
RRLQGTSSMV [GOLT1A, Q6ZVE7]	3.72
TGPWKNETTV [ADGRA1, Q86SQ6]	3.54
ALPLPQSSTC [IGF1R, P08069]	3.86

Target: LNX1_3, Q8TBB1
Assay: holdup assay
Design: key: below the threshold = too weak to quantify, mostly under pKd 3.1 to 4
Conditions: plain residues with an end cap or a label only (N-terminal biotin on a linker: ado-ado)

Sequence of LNX1_3, Q8TBB1 (Q8TBB1 500-596): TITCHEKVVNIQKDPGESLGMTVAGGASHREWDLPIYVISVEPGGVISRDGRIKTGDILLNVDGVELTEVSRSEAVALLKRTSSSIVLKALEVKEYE

Binder	pKd
RRLQGTSSMV [GOLT1A, Q6ZVE7]	below the threshold
TGPWKNETTV [ADGRA1, Q86SQ6]	below the threshold
ALPLPQSSTC [IGF1R, P08069]	below the threshold

Target: T7, GRIP1_5, Q9Y3R0
Assay: holdup assay
Design: key: below the threshold = too weak to quantify, mostly under pKd 3.1 to 4
Conditions: plain residues with an end cap or a label only (N-terminal biotin on a linker: ado-ado)

Binder	pKd
RRLQGTSSMV [GOLT1A, Q6ZVE7]	below the threshold
TGPWKNETTV [ADGRA1, Q86SQ6]	below the threshold
ALPLPQSSTC [IGF1R, P08069]	below the threshold

Target: PDZRN4_1, Q6ZMN7
Assay: holdup assay
Design: key: below the threshold = too weak to quantify, mostly under pKd 3.1 to 4
Conditions: plain residues with an end cap or a label only (N-terminal biotin on a linker: ado-ado)

Sequence of PDZRN4_1, Q6ZMN7 (Q6ZMN7 213-318): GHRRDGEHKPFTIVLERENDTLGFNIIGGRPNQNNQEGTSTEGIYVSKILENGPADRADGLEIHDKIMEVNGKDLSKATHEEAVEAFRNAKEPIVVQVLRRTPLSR

Binder	pKd
RRLQGTSSMV [GOLT1A, Q6ZVE7]	below the threshold
TGPWKNETTV [ADGRA1, Q86SQ6]	4.31
ALPLPQSSTC [IGF1R, P08069]	below the threshold

Target: SCRIB_3, Q14160
Assay: holdup assay
Design: key: below the threshold = too weak to quantify, mostly under pKd 3.1 to 4
Conditions: plain residues with an end cap or a label only (N-terminal biotin on a linker: ado-ado)

Sequence of SCRIB_3, Q14160 (Q14160 999-1103): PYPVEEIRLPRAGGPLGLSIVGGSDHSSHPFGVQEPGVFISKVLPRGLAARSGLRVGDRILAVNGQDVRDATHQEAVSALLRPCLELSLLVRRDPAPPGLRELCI

Binder	pKd
RRLQGTSSMV [GOLT1A, Q6ZVE7]	below the threshold
TGPWKNETTV [ADGRA1, Q86SQ6]	4.69
ALPLPQSSTC [IGF1R, P08069]	below the threshold

Target: T8, MPP2, Q14168
Assay: holdup assay
Design: key: below the threshold = too weak to quantify, mostly under pKd 3.1 to 4
Conditions: plain residues with an end cap or a label only (N-terminal biotin on a linker: ado-ado)

Binder	pKd
RRLQGTSSMV [GOLT1A, Q6ZVE7]	below the threshold
TGPWKNETTV [ADGRA1, Q86SQ6]	below the threshold
ALPLPQSSTC [IGF1R, P08069]	below the threshold

Target: T9, PARD3B_1, Q8TEW8
Assay: holdup assay
Design: key: below the threshold = too weak to quantify, mostly under pKd 3.1 to 4
Conditions: plain residues with an end cap or a label only (N-terminal biotin on a linker: ado-ado)

Binder	pKd
RRLQGTSSMV [GOLT1A, Q6ZVE7]	below the threshold
TGPWKNETTV [ADGRA1, Q86SQ6]	below the threshold
ALPLPQSSTC [IGF1R, P08069]	below the threshold

Target: T10, DFNB31_3, Q9P202
Assay: holdup assay
Design: key: below the threshold = too weak to quantify, mostly under pKd 3.1 to 4
Conditions: plain residues with an end cap or a label only (N-terminal biotin on a linker: ado-ado)

Binder	pKd
RRLQGTSSMV [GOLT1A, Q6ZVE7]	3.66
TGPWKNETTV [ADGRA1, Q86SQ6]	below the threshold
ALPLPQSSTC [IGF1R, P08069]	3.59

Target: T11, GRIP1_4, Q9Y3R0
Assay: holdup assay
Design: key: below the threshold = too weak to quantify, mostly under pKd 3.1 to 4
Conditions: plain residues with an end cap or a label only (N-terminal biotin on a linker: ado-ado)

Binder	pKd
RRLQGTSSMV [GOLT1A, Q6ZVE7]	below the threshold
TGPWKNETTV [ADGRA1, Q86SQ6]	below the threshold
ALPLPQSSTC [IGF1R, P08069]	below the threshold

Target: T12, MPDZ_12, O75970
Assay: holdup assay
Design: key: below the threshold = too weak to quantify, mostly under pKd 3.1 to 4
Conditions: plain residues with an end cap or a label only (N-terminal biotin on a linker: ado-ado)

Binder	pKd
RRLQGTSSMV [GOLT1A, Q6ZVE7]	below the threshold
TGPWKNETTV [ADGRA1, Q86SQ6]	below the threshold
ALPLPQSSTC [IGF1R, P08069]	below the threshold

Target: T13, PDZD2_2, O15018
Assay: holdup assay
Design: key: below the threshold = too weak to quantify, mostly under pKd 3.1 to 4
Conditions: plain residues with an end cap or a label only (N-terminal biotin on a linker: ado-ado)

Binder	pKd
RRLQGTSSMV [GOLT1A, Q6ZVE7]	5.16
TGPWKNETTV [ADGRA1, Q86SQ6]	4.02
ALPLPQSSTC [IGF1R, P08069]	4.46

Target: DLG1_1, Q12959
Assay: holdup assay
Design: key: below the threshold = too weak to quantify, mostly under pKd 3.1 to 4
Conditions: plain residues with an end cap or a label only (N-terminal biotin on a linker: ado-ado)

Binder	pKd
RRLQGTSSMV [GOLT1A, Q6ZVE7]	4.08
TGPWKNETTV [ADGRA1, Q86SQ6]	4.82
ALPLPQSSTC [IGF1R, P08069]	below the threshold

Target: SNX27, Q96L92
Assay: holdup assay
Design: key: below the threshold = too weak to quantify, mostly under pKd 3.1 to 4
Conditions: plain residues with an end cap or a label only (N-terminal biotin on a linker: ado-ado)

Binder	pKd
RRLQGTSSMV [GOLT1A, Q6ZVE7]	below the threshold
TGPWKNETTV [ADGRA1, Q86SQ6]	5.43
ALPLPQSSTC [IGF1R, P08069]	below the threshold
